What was measured:
[1] = target: p9 p9 (Equine infectious anemia virus) (UniProt P69730); assay: SPR; conditions: cited from earlier work
[2] = target: T1, Gal4 DBD-HIV-1 p6 (wild type), P12493; assay: yeast two-hybrid, β-galactosidase assay; conditions: chain shown with the change;; parent: est. 0.85; read off a plot
T1 chain: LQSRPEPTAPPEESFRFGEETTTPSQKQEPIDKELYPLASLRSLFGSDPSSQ

[3] = target: T2, GAL4 DBD-p9 EIAVUK, P69732; assay: yeast two-hybrid, β-galactosidase assay; conditions: chain shown with the change;; parent: est. 1.2; read off a plot
T2 chain: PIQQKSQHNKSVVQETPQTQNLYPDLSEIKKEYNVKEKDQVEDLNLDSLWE

Sequence of ALIX deleted from PRR (Q8WUM4 2-868, stated change not applied): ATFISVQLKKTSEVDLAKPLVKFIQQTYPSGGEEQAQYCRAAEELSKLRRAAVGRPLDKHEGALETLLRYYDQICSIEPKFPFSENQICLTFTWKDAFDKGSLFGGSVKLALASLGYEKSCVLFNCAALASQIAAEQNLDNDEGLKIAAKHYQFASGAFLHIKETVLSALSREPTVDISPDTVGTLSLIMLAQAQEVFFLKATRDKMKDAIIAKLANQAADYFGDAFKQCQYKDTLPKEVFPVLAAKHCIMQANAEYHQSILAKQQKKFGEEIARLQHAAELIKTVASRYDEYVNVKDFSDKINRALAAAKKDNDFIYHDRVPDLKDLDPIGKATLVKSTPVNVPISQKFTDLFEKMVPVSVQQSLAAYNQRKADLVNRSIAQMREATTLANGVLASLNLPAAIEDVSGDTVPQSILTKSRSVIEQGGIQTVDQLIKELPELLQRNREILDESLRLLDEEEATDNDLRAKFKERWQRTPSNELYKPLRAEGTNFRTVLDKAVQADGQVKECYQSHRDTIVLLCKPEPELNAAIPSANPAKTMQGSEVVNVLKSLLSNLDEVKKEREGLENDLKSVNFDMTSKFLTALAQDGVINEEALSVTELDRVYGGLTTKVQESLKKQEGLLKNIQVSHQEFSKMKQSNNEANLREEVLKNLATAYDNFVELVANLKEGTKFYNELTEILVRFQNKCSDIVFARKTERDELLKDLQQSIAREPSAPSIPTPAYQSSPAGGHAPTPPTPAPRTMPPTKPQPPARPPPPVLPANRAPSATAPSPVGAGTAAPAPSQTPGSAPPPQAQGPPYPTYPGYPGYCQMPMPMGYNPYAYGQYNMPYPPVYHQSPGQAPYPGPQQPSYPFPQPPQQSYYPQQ

Row | Molecule | Kd [1] | other: relative β-Gal activity (relative to ALIX wild type = 1) [2] | other: relative β-Gal activity (relative to ALIX wild type = 1) [3]
1 | ALIX deleted from PRR (from UniProt Q8WUM4) | 1200 nM |  | 
2 | Gal4 AD-ALIXΔ541–582, Q8WUM4-1 V509A (protein) MATFISVQLKKTSEVDLAKPLVKFIQQTYPSGGEEQAQYCRAAEELSKLRRAAVGRPLDKHEGALETLLRYYDQICSIEPKFPFSENQICLTFTWKDAFDKGSLFGGSVKLALASLGYEKSCVLFNCAALASQIAAEQNLDNDEGLKIAAKHYQFASGAFLHIKETVLSALSREPTVDISPDTVGTLSLIMLAQAQEVFFLKATRDKMKDAIIAKLANQAADYFGDAFKQCQYKDTLPKEVFPVLAAKHCIMQANAEYHQSILAKQQKKFGEEIARLQHAAELIKTVASRYDEYVNVKDFSDKINRALAAAKKDNDFIYHDRVPDLKDLDPIGKATLVKSTPVNVPISQKFTDLFEKMVPVSVQQSLAAYNQRKADLVNRSIAQMREATTLANGVLASLNLPAAIEDVSGDTVPQSILTKSRSVIEQGGIQTVDQLIKELPELLQRNREILDESLRLLDEEEATDNDLRAKFKERWQRTPSNELYKPLRAEGTNFRTVLDKAVQADGQAKECYQSHRDTIVLLCKPEPELNAAIPSANPAKTMQGSEVVNVLKSLLSNLDEVKKEREGLENDLKSVNFDMTSKFLTALAQDGVINEEALSVTELDRVYGGLTTKVQESLKKQEGLLKNIQVSHQEFSKMKQSNNEANLREEVLKNLATAYDNFVELVANLKEGTKFYNELTEILVRFQNKCSDIVFARKTERDELLKDLQQSIAREPSAPSIPTPAYQSSPAGGHAPTPPTPAPRTMPPTKPQPPARPPPPVLPANRAPSATAPSPVGAGTAAPAPSQTPGSAPPPQAQGPPYPTYPGYPGYCQMPMPMGYNPYAYGQYNMPYPPVYHQSPGQAPYPGPQQPSYPFPQPPQQSYYPQQ |  | 0.05 | 1.1

Reference: paper PMC2397435 (2008)
